Values of other authors as cited in patent US20200069786A1, “COMPOSITION AND PROCESS FOR PREPARING VACCINE” (TREOS BIO ZRT., priority 2018, published 2020).
Read-outs that look alike come from different tables or passages of the source.

Test system: TSA
[1] = TSA expression rate in BLADDER cancer
[2] = TSA expression rate in Esophageal
[3] = TSA expression rate in HEAD and NECK
[4] = TSA expression rate in LEUKEMIAS
[5] = TSA expression rate in MELANOMA
[6] = TSA expression rate in GASTRIC cancer

Row | Molecule | TSA Expression Rate (ER) (BREAST) [%] | TSA Expression Rate (ER) (HCC) [%] | TSA Expression Rate (ER) (OVARIAN) [%] | Expression Rate (ER) % [1] [%] | Expression Rate (ER) % [2] [%] | Expression Rate (ER) % [3] [%] | Expression Rate (ER) % (TSA expression rate in Kidney) [%] | Expression Rate (ER) % [4] [%] | Expression Rate (ER) % [5] [%] | TSA Expression Rate (ER) (PANCREATIC) [%] | Expression Rate (ER) % (TSA expression rate in CRC) [%] | Expression Rate (ER) % [6] [%] | Expression Rate (ER) % (TSA expression rate in LUNG cancer) [%] | TSA Expression Rate (ER) (BRAIN) [%] | TSA Expression Rate (ER) (LUNG) [%] | TSA Expression Rate (ER) (THYROID) [%] | Expression Rate (ER) % (TSA expression rate in PROSTATE cancer) [%]
1 | MAGE-A9 (protein, UniProt P43362 1-315, looked up) Melanoma-associated antigen 9: MSLEQRSPHCKPDEDLEAQGEDLGLMGAQEPTGEEEETTSSSDSKEEEVSAAGSSSPPQSPQGGASSSISVYYTLWSQFDEGSSSQEEEEPSSSVDPAQLEFMFQEALKLKVAELVHFLLHKYRVKEPVTKAEMLESVIKNYKRYFPVIFGKASEFMQVIFGTDVKEVDPAGHSYILVTALGLSCDSMLGDGHSMPKAALLIIVLGVILTKDNCAPEEVIWEALSVMGVYVGKEHMFYGEPRKLLTQDWVQENYLEYRQVPGSDPAHYEFLWGSKAHAETSYEKVINYLVMLNAREPICYPSLYEEVLGEEQEGV | 44 | 5 | 37 | 61 | 55 | 44 | 55 | 9 | 12 | – | – | – | – | – | – | – | –
2 | SPAN-Xc (protein, UniProt Q9NY87 1-97, looked up) Sperm protein associated with …: MDKQSSAGGVKRSVPCDSNEANEMMPETSSGYSDPQPAPKKLKTSESSTILVVRYRRNVKRTSPEELVNDHARENRINPLQMEEEEFMEIMVEIPAK | 26 | 60 | 0 | 9 | 0 | – | – | 4 | 70 | 0 | 24 | 0 | 17 | – | – | – | –
3 | FTHL17 (protein, UniProt Q9BXU8 1-183, looked up) Ferritin heavy …: MATAQPSQVRQKYDTNCDAAINSHITLELYTSYLYLSMAFYFNRDDVALENFFRYFLRLSDDKMEHAQKLMRLQNLRGGHICLHDIRKPECQGWESGLVAMESAFHLEKNVNQSLLDLYQLAVEKGDPQLCHFLESHYLHEQVKTIKELGGYVSNLRKICSPEAGLAEYLFDKLTLGGRVKET | 14 | – | – | 22 | 0 | 10 | 0 | – | 0 | – | 0 | – | – | 82 | 25 | 0 | 0
4 | AKAP-3 (protein, UniProt O75969 1-853, looked up) A-kinase anchor protein 3: MSEKVDWLQSQNGVCKVDVYSPGDNQAQDWKMDTSTDPVRVLSWLRRDLEKSTAEFQDVRFKPGESFGGETSNSGDPHKGFSVDYYNTTTKGTPERLHFEMTHKEIPCQGPRAQLGNGSSVDEVSFYANRLTNLVIAMARKEINEKIDGSENKCVYQSLYMGNEPTPTKSLSKIASELVNETVSACSRNAAPDKAPGSGDRVSGSSQSPPNLKYKSTLKIKESTKERQGPDDKPPSKKSFFYKEVFESRNGDYAREGGRFFPRERKRFRGQERPDDFTASVSEGIMTYANSVVSDMMVSIMKTLKIQVKDTTIATILLKKVLLKHAKEVVSDLIDSFLRNLHSVTGTLMTDTQFVSAVKRTVFSHGSQKATDIMDAMLRKLYNVMFAKKVPEHVRKAQDKAESYSLISMKGMGDPKNRNVNFAMKSETKLREKMYSEPKSEEETCAKTLGEHIIKEGLTLWHKTQQKECKSLGFQHAAFEAPNTQRKPASDISFEYPEDIGNLSLPPYPPEKPENFMYDSDSWAEDLIVSALLLIQYHLAQGGRRDARSFVEAAGTTNFPANEPPVAPDESCLKSAPIVGDQEQAEKKDLRSVFFNFIRNLLSETIFKRDQSPEPKVPEQPVKEDRKLCERPLASSPPRLYEDDETPGALSGLTKMAVSQIDGHMSGQMVEHLMNSVMKLCVIIAKSCDASLAELGDDKSGDASRLTSAFPDSLYECLPAKGTGSAEAVLQNAYQAIHNEMRGTSGQPPEGCAAPTVIVSNHNLTDTVQNKQLQAVLQWVAASELNVPILYFAGDDEGIQEKLLQLSAAAVDKGCSVGEVLQSVLRYEKERQLNEAVGNVTPLQLLDWLMVNL | 40 | 50 | 48 | – | – | – | – | – | – | – | 83 | 89 | – | – | 46 | – | –
